Values belong to the binder of their own block, whether it stands above or below them.
Assays:
[1] = target: T1, 人LAG-3 on the surface of a stable 293T cell line overexpressing it (human, UniProt P18627 23-525); experiment: flow cytometry on 293T cells overexpressing human LAG-3
T1 construct: whole, on cells; also called 表面过表达人LAG-3的293T细胞
T1 sequence (looked up): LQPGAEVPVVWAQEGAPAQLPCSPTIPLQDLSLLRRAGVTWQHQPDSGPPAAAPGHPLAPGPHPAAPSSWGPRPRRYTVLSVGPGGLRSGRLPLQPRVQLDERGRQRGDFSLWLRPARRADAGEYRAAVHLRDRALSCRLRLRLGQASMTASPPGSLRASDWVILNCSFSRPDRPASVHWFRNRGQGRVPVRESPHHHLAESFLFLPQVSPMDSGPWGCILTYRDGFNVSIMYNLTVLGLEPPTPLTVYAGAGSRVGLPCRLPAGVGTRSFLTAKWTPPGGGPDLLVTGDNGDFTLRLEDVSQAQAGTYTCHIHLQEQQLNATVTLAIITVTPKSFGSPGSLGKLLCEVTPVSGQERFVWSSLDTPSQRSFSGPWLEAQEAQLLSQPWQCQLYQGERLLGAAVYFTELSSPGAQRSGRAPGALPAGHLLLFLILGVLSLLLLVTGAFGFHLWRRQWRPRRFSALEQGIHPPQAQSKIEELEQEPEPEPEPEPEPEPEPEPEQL

[2] = target: T2, 小鼠LAG-3-his (in-house, mouse LAG-3 Uniprot #Q61790, Gly24-Leu442) (mouse, UniProt Q61790 24-442); experiment: indirect ELISA, coated mouse LAG-3-his
T2 construct: range 24-442; also called 鼠LAG-3蛋白; not shown: his tag
T2 sequence (looked up): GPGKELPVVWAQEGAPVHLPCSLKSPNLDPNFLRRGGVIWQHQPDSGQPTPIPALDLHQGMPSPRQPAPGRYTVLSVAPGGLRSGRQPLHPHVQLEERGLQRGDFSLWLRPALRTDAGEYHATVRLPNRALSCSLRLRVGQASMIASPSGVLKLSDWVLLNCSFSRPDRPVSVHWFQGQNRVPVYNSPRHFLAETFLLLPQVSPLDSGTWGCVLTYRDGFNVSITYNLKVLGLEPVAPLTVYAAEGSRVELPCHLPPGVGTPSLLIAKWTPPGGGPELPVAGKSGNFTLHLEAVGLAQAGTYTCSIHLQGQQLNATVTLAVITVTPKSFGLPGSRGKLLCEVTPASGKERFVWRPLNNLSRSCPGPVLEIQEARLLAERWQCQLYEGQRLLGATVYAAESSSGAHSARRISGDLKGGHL

[3] = target: T3, 生物素标记的人LAG-3蛋白 (LAG-3-Fc-bio, cat#LA3-H82Fb, Acro) (human, UniProt P18627 23-450, biotin label (site not stated)); experiment: capture ELISA: antibody captured on GAM-Fab/GAH-Fab, LAG-3-Fc-bio in solution, SA-HRP
T3 construct: Bought protein (Acro LA3-H82Fb); also called 人LAG-3-Fc-bio; not shown: Fc part of the bought fusion
T3 sequence (looked up): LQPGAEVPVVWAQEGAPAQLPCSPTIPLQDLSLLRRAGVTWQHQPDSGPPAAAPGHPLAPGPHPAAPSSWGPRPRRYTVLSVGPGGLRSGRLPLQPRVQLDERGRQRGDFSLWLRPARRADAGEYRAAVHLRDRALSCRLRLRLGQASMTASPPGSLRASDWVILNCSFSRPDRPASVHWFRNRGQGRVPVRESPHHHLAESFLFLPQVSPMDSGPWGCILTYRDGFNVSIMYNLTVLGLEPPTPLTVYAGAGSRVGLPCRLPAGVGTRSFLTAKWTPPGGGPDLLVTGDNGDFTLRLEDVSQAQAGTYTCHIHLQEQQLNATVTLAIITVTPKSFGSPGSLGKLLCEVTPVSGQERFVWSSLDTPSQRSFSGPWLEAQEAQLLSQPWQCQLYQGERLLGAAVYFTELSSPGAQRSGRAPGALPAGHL

binding result [1]: binds
binding result [3]: binds
B1: 抗人LAG-3抗体G1A7 (mouse anti-human LAG-3 monoclonal antibody G1A7) (antibody, V domains shown)
VH: EVQLQQSGPVLVKPGASVKMSCKASGYTFTHYYMNWVKQSHGKSLEWIGVINPYNGDTSYKQNFKGKATLTVDKTSSTAYMDLNSLTSEDSAVYYCARDDGYYQWYFDVWGTGTTVTVSS
VL: DIQLTQSPSSLSASLGERVSLTCRASQDIGSRLIWLQQGPDGTIKRLIFATSSLDSGVPKRFSGSRSGSDYSLTISSLESEDFVDYYCLQCASSPPTFGGGTKLEIK
notes: Tested as the mouse monoclonal antibody purified from hybridoma culture; also called 本发明的抗体G1A7
binding result [2]: no binding (tested: from 66.7nM, serial 5-fold dilution)

B2: Relatlimab (BRISTOL-MYERS SQUIBB COMPANY, BMS), reference antibody, prepared in-house (antibody, human IgG4 S228P, kappa, V domains shown)
VH: QVQLQQWGAGLLKPSETLSLTCAVYGGSFSDYYWNWIRQPPGKGLEWIGEINHRGSTNSNPSLKSRVTLSLDTSKNQFSLKLRSVTAADTAVYYCAFGYSDYEYNWFDPWGQGTLVTVSS
VL: EIVLTQSPATLSLSPGERATLSCRASQSISSYLAWYQQKPGQAPRLLIYDASNRATGIPARFSGSGSGTDFTLTISSLEPEDFAVYYCQQRSNWPLTFGQGTNLEIKR
notes: also called 参照抗体; 参照抗体Relatlimab
binding result [2]: no binding (tested: from 66.7nM, serial 5-fold dilution)
